Experimental data from the supplement of paper PMC6757056.
± gives the standard deviation of the averaged measurements.

B1: library; a variant is named by its letters at N, in order (parent)
chain: GCUGUCACCGAGAAACUGUGAAGUAUAUCUUAAACCUGGGCACUUAAAAGAUAUAUGGAGUUAGUAGUGCAACCUGCUCGGUCUGAUGAGUCCNNNNNNGGACGAAACAGC

Legend:
cyclic di-GMP [1] = variants of: B1; assay: normalized RNA/DNA level without ligand (relative to sTRSVctl = 100) (log10 (% of sTRSVctl)); HEK293T; ligand: cyclic di-GMP (c-di-GMP-II aptamer); higher = less ribozyme self-cleavage, higher mRNA level; settings: reporter: mCherry (pCS4076), ligand present: no
Method in brief: (§1)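 Library plasmids encoding reporter-linked ribozyme switches (mCherry, or eGFP for some folinic acid experiments) were transfected into HEK293T at 4 µg per 6-well well. Ligand, when used, was added 1 h before transfection. Total RNA was extracted with EDTA 72 h later, then reverse-transcribed, amplified, barcoded and sequenced. RNA level was RNA reads over DNA reads, divided by a spiked-in non-cleaving control (or the top 25 sequences), ×100, log10; only sequences with ≥100 DNA reads were kept.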

cyclic di-GMP [2] = variants of: B1; assay: normalized RNA/DNA level with ligand (relative to sTRSVctl = 100) (log10 (% of sTRSVctl)); HEK293T; ligand: cyclic di-GMP (c-di-GMP-II aptamer); ligand concentration (+) RNA-Seq: 1 mM; higher = less ribozyme self-cleavage, higher mRNA level; settings: reporter: mCherry (pCS4076), ligand present: yes
Method in brief: as §1

| Variant | normalized RNA/DNA level without ligand (log10) (cyclic di-GMP [1]) | normalized RNA/DNA level with ligand (log10) (cyclic di-GMP [2]) |
| --- | --- | --- |
| GCUGUCACCGAGAAACUGUGAAGUAUAUCUUAAACCUGGGCACUUAAAAGAUAUAUGGAGUUAGUAGUGCAACCUGCUCGGUCUGAUGAGUCCCGCACGGGACGAAACAGC | 1.75 ± 0.038 | 1.85 ± 0.08 |
| GCUGUCACCGAGAAACUGUGAAGUAUAUCUUAAACCUGGGCACUUAAAAGAUAUAUGGAGUUAGUAGUGCAACCUGCUCGGUCUGAUGAGUCCGACGUAGGACGAAACAGC | 1.665 ± 0.013 | 1.8 ± 0.085 |
| GCUGUCACCGAGAAACUGUGAAGUAUAUCUUAAACCUGGGCACUUAAAAGAUAUAUGGAGUUAGUAGUGCAACCUGCUCGGUCUGAUGAGUCCUGGCCUGGACGAAACAGC | 1.84 ± 0.12 | 1.97 ± 0.15 |
| GCUGUCACCGAGAAACUGUGAAGUAUAUCUUAAACCUGGGCACUUAAAAGAUAUAUGGAGUUAGUAGUGCAACCUGCUCGGUCUGAUGAGUCCCGUUGAGGACGAAACAGC | 1.52 ± 0.043 | 1.71 ± 0.14 |
| GCUGUCACCGAGAAACUGUGAAGUAUAUCUUAAACCUGGGCACUUAAAAGAUAUAUGGAGUUAGUAGUGCAACCUGCUCGGUCUGAUGAGUCCUCUGCGGGACGAAACAGC | 1.78 ± 0.035 | 1.85 ± 0.12 |
| GCUGUCACCGAGAAACUGUGAAGUAUAUCUUAAACCUGGGCACUUAAAAGAUAUAUGGAGUUAGUAGUGCAACCUGCUCGGUCUGAUGAGUCCGCUUGAGGACGAAACAGC | 1.54 ± 0.08 | 1.76 ± 0.12 |
| GCUGUCACCGAGAAACUGUGAAGUAUAUCUUAAACCUGGGCACUUAAAAGAUAUAUGGAGUUAGUAGUGCAACCUGCUCGGUCUGAUGAGUCCCCAUGUGGACGAAACAGC | 1.68 ± 0.054 | 1.8 ± 0.097 |
| GCUGUCACCGAGAAACUGUGAAGUAUAUCUUAAACCUGGGCACUUAAAAGAUAUAUGGAGUUAGUAGUGCAACCUGCUCGGUCUGAUGAGUCCUGUGCCGGACGAAACAGC | 1.85 ± 0.074 | 1.94 ± 0.14 |
| GCUGUCACCGAGAAACUGUGAAGUAUAUCUUAAACCUGGGCACUUAAAAGAUAUAUGGAGUUAGUAGUGCAACCUGCUCGGUCUGAUGAGUCCCAUUCCGGACGAAACAGC | 1.781 ± 0.0028 | 1.87 ± 0.041 |
| GCUGUCACCGAGAAACUGUGAAGUAUAUCUUAAACCUGGGCACUUAAAAGAUAUAUGGAGUUAGUAGUGCAACCUGCUCGGUCUGAUGAGUCCCAUUCAGGACGAAACAGC | 1.38 ± 0.087 | 1.56 ± 0.12 |
| GCUGUCACCGAGAAACUGUGAAGUAUAUCUUAAACCUGGGCACUUAAAAGAUAUAUGGAGUUAGUAGUGCAACCUGCUCGGUCUGAUGAGUCCCACGCGGGACGAAACAGC | 1.73 ± 0.028 | 1.83 ± 0.062 |
| GCUGUCACCGAGAAACUGUGAAGUAUAUCUUAAACCUGGGCACUUAAAAGAUAUAUGGAGUUAGUAGUGCAACCUGCUCGGUCUGAUGAGUCCGGCUCUGGACGAAACAGC | 1.78 ± 0.041 | 1.92 ± 0.076 |
| GCUGUCACCGAGAAACUGUGAAGUAUAUCUUAAACCUGGGCACUUAAAAGAUAUAUGGAGUUAGUAGUGCAACCUGCUCGGUCUGAUGAGUCCGCACAGGGACGAAACAGC | 1.58 ± 0.061 | 1.71 ± 0.14 |
| GCUGUCACCGAGAAACUGUGAAGUAUAUCUUAAACCUGGGCACUUAAAAGAUAUAUGGAGUUAGUAGUGCAACCUGCUCGGUCUGAUGAGUCCUAUGUUGGACGAAACAGC | 1.65 ± 0.008 | 1.79 ± 0.15 |
| GCUGUCACCGAGAAACUGUGAAGUAUAUCUUAAACCUGGGCACUUAAAAGAUAUAUGGAGUUAGUAGUGCAACCUGCUCGGUCUGAUGAGUCCUCCAGGGGACGAAACAGC | 1.81 ± 0.046 | 1.9 ± 0.14 |
| GCUGUCACCGAGAAACUGUGAAGUAUAUCUUAAACCUGGGCACUUAAAAGAUAUAUGGAGUUAGUAGUGCAACCUGCUCGGUCUGAUGAGUCCAGAUCCGGACGAAACAGC | 1.81 ± 0.016 | 1.89 ± 0.038 |
| GCUGUCACCGAGAAACUGUGAAGUAUAUCUUAAACCUGGGCACUUAAAAGAUAUAUGGAGUUAGUAGUGCAACCUGCUCGGUCUGAUGAGUCCUGCUGUGGACGAAACAGC | 1.748 ± 0.01 | 1.87 ± 0.1 |
| GCUGUCACCGAGAAACUGUGAAGUAUAUCUUAAACCUGGGCACUUAAAAGAUAUAUGGAGUUAGUAGUGCAACCUGCUCGGUCUGAUGAGUCCCGCGCCGGACGAAACAGC | 1.75 ± 0.025 | 1.88 ± 0.14 |
| GCUGUCACCGAGAAACUGUGAAGUAUAUCUUAAACCUGGGCACUUAAAAGAUAUAUGGAGUUAGUAGUGCAACCUGCUCGGUCUGAUGAGUCCGUUACAGGACGAAACAGC | 1.661 ± 0.0095 | 1.8 ± 0.11 |
| GCUGUCACCGAGAAACUGUGAAGUAUAUCUUAAACCUGGGCACUUAAAAGAUAUAUGGAGUUAGUAGUGCAACCUGCUCGGUCUGAUGAGUCCGACUCGGGACGAAACAGC | 1.78 ± 0.081 | 1.87 ± 0.074 |
| GCUGUCACCGAGAAACUGUGAAGUAUAUCUUAAACCUGGGCACUUAAAAGAUAUAUGGAGUUAGUAGUGCAACCUGCUCGGUCUGAUGAGUCCUUAUUGGGACGAAACAGC | 1.7 ± 0.026 | 1.83 ± 0.16 |
| GCUGUCACCGAGAAACUGUGAAGUAUAUCUUAAACCUGGGCACUUAAAAGAUAUAUGGAGUUAGUAGUGCAACCUGCUCGGUCUGAUGAGUCCAGUGAGGGACGAAACAGC | 1.52 ± 0.11 | 1.67 ± 0.13 |
| GCUGUCACCGAGAAACUGUGAAGUAUAUCUUAAACCUGGGCACUUAAAAGAUAUAUGGAGUUAGUAGUGCAACCUGCUCGGUCUGAUGAGUCCUAAAAAGGACGAAACAGC | 1.65 ± 0.048 | 1.78 ± 0.12 |
| GCUGUCACCGAGAAACUGUGAAGUAUAUCUUAAACCUGGGCACUUAAAAGAUAUAUGGAGUUAGUAGUGCAACCUGCUCGGUCUGAUGAGUCCCCAACGGGACGAAACAGC | 1.71 ± 0.049 | 1.85 ± 0.1 |
| GCUGUCACCGAGAAACUGUGAAGUAUAUCUUAAACCUGGGCACUUAAAAGAUAUAUGGAGUUAGUAGUGCAACCUGCUCGGUCUGAUGAGUCCUUCUCGGGACGAAACAGC | 1.8 ± 0.065 | 1.91 ± 0.15 |
| GCUGUCACCGAGAAACUGUGAAGUAUAUCUUAAACCUGGGCACUUAAAAGAUAUAUGGAGUUAGUAGUGCAACCUGCUCGGUCUGAUGAGUCCCCGAAUGGACGAAACAGC | 1.48 ± 0.13 | 1.68 ± 0.11 |
